Experimental data as given in patent US20110300138A1 (published 2011).
Read-outs that look alike come from different tables or passages of the source.

Tests used:
Experiment in all cases: cell-based or functional assay
[1] = molecular target: human TSHR (thyroid stimulating hormone receptor), full length, expressed in transfected CHO cells (human) (UniProt P16473)
wild type TSHR (human) = wild type TSHR (human) (UniProt P16473)
[2] = molecular target: wild type TSHR expressed in CHO cells (human) (UniProt P16473)
[3] = molecular target: wild type TSHR (human TSH receptor, full length) expressed in CHO cells (human) (UniProt P16473)
[4] = molecular target: TSHR with Lys183 mutated to Ala expressed in CHO cells (human) (UniProt P16473)
[5] = molecular target: TSHR with Lys58 mutated to Ala expressed in CHO cells (human) (UniProt P16473)
[6] = molecular target: TSHR with Thr104 mutated to Ala (expressed in CHO cells) (human) (UniProt P16473)
[7] = molecular target: TSHR with Lys129 mutated to Ala, expressed in CHO cells (human) (UniProt P16473)
[8] = molecular target: TSHR with Arg109 mutated to Ala, expressed in CHO cells (human) (UniProt P16473)

% Inhibition of K1-18 IgG stimulation; 10 ng/mL K1-18 IgG + 100 µg/mL 5B3 IgG [1]: 0%
% Inhibition of K1-18 stimulation; 10 ng/mL K1-18 + 100 µg/mL 5B3 IgG [1]: 0%
% Inhibition of K1-18 stimulation; 10 ng/mL KM 8 [K1-18] + 10 µg/mL 5B3 IgG [1]: 3.5%
% inhibition of TSH stimulation, 5B3 10 µg/mL, wild type TSHR (wild type TSHR (human)): 0%
% inhibition of TSH stimulation, 5B3 100 µg/mL, wild type TSHR (wild type TSHR (human)): 3%
Cyclic AMP produced (pmol/mL), 5B3 10 µg/mL + TSH 3 ng/mL, wild type TSHR (wild type TSHR (human)): 126 pmol/mL
Cyclic AMP produced (pmol/mL), 5B3 100 µg/mL + TSH 3 ng/mL, wild type TSHR (wild type TSHR (human)): 97.3 pmol/mL
% inhibition of TSH stimulation (stimulator given as M22), wild type TSHR; 5B3 10 µg/mL [2]: 0%
% inhibition of TSH stimulation (stimulator given as M22), wild type TSHR; 5B3 100 µg/mL [2]: 0%
% inhibition of TSH stimulation, wild type TSHR; 5B3 10 µg/mL [2]: 0%
% inhibition of TSH stimulation, wild type TSHR; 5B3 100 µg/mL [2]: 0%
% inhibition of TSH stimulation; 5B3 10 µg/mL [2]: 0%
% inhibition of TSH stimulation; 5B3 10 µg/mL; Experiment 1 [2]: 0%
% inhibition of TSH stimulation; 5B3 10 µg/mL; Experiment 2 [2]: 0%
% inhibition of TSH stimulation; 5B3 100 µg/mL [2]: 0%
% inhibition of TSH stimulation; 5B3 100 µg/mL; Experiment 1 [2]: 0%
% inhibition of TSH stimulation; 5B3 100 µg/mL; Experiment 2 [2]: 8%
Cyclic AMP produced; 5B3 10 µg/mL + TSH 3 ng/mL [2]: 103 pmol/mL
Cyclic AMP produced; 5B3 10 µg/mL + TSH 3 ng/mL; Experiment 1 [2]: 82.8 pmol/mL
Cyclic AMP produced; 5B3 10 µg/mL + TSH 3 ng/mL; Experiment 2 [2]: 106 pmol/mL
Cyclic AMP produced; 5B3 100 µg/mL + TSH 3 ng/mL [2]: 94.8 pmol/mL
Cyclic AMP produced; 5B3 100 µg/mL + TSH 3 ng/mL; Experiment 1 [2]: 80.7 pmol/mL
Cyclic AMP produced; 5B3 100 µg/mL + TSH 3 ng/mL; Experiment 2 [2]: 90.4 pmol/mL
Experiment 1: % inhibition of TSH stimulation; 5B3 10 µg/mL [2]: 0%
Experiment 1: % inhibition of TSH stimulation; 5B3 100 µg/mL [2]: 0%
Experiment 1; % inhibition of TSH stimulation; 5B3 10 µg/mL [2]: 0%
Experiment 1; % inhibition of TSH stimulation; 5B3 100 µg/mL [2]: 7%
Experiment 1; cyclic AMP produced; 5B3 10 µg/mL + TSH 3 ng/mL [2]: 79.6 pmol/mL
Experiment 1; cyclic AMP produced; 5B3 100 µg/mL + TSH 3 ng/mL [2]: 72.7 pmol/mL
Experiment 2: % inhibition of TSH stimulation; 5B3 10 µg/mL [2]: 0%
Experiment 2: % inhibition of TSH stimulation; 5B3 100 µg/mL [2]: 0%
Experiment 2; % inhibition of TSH stimulation; 5B3 10 µg/mL [2]: 0%
Experiment 2; % inhibition of TSH stimulation; 5B3 100 µg/mL [2]: 0%
Experiment 2; cyclic AMP produced; 5B3 10 µg/mL + TSH 3 ng/mL [2]: 107 pmol/mL
Experiment 2; cyclic AMP produced; 5B3 100 µg/mL + TSH 3 ng/mL [2]: 101 pmol/mL
% inhibition of TSH stimulation; 5B3 10 µg/mL ([2]; record 2): 0%
% inhibition of TSH stimulation; 5B3 100 µg/mL ([2]; record 2): 0%
Cyclic AMP produced; 5B3 10 µg/mL + TSH 3 ng/mL ([2]; record 2): 83.6 pmol/mL
Cyclic AMP produced; 5B3 100 µg/mL + TSH 3 ng/mL ([2]; record 2): 88 pmol/mL
% inhibition of TSH stimulation; 5B3 10 µg/mL [3]: 0%
% inhibition of TSH stimulation; 5B3 10 µg/mL; Experiment 1 [3]: 3%
% inhibition of TSH stimulation; 5B3 10 µg/mL; Experiment 2 [3]: 0%
% inhibition of TSH stimulation; 5B3 100 µg/mL [3]: 0%
% inhibition of TSH stimulation; 5B3 100 µg/mL; Experiment 1 [3]: 0%
% inhibition of TSH stimulation; 5B3 100 µg/mL; Experiment 2 [3]: 0%
Cyclic AMP produced; 5B3 10 µg/mL + TSH 3 ng/mL [3]: 53.9 pmol/mL
Cyclic AMP produced; 5B3 10 µg/mL + TSH 3 ng/mL; Experiment 1 [3]: 65.8 pmol/mL
Cyclic AMP produced; 5B3 10 µg/mL + TSH 3 ng/mL; Experiment 2 [3]: 68.6 pmol/mL
Cyclic AMP produced; 5B3 100 µg/mL + TSH 3 ng/mL [3]: 52.6 pmol/mL
Cyclic AMP produced; 5B3 100 µg/mL + TSH 3 ng/mL; Experiment 1 [3]: 68.5 pmol/mL
Cyclic AMP produced; 5B3 100 µg/mL + TSH 3 ng/mL; Experiment 2 [3]: 66.5 pmol/mL
% inhibition of TSH stimulation, Exp 1: 5B3 10 µg/mL [4]: 24%
% inhibition of TSH stimulation, Exp 1: 5B3 100 µg/mL [4]: 17%
% inhibition of TSH stimulation, Exp 2: 5B3 10 µg/mL [4]: 9%
% inhibition of TSH stimulation, Exp 2: 5B3 100 µg/mL [4]: 9%
Cyclic AMP, Mutated/wild type (%), Exp 1: 5B3 10 µg/mL + TSH 3 ng/mL [4]: 93%
Cyclic AMP, Mutated/wild type (%), Exp 1: 5B3 100 µg/mL + TSH 3 ng/mL [4]: 91%
Cyclic AMP, Mutated/wild type (%), Exp 2: 5B3 10 µg/mL + TSH 3 ng/mL [4]: 104%
Cyclic AMP, Mutated/wild type (%), Exp 2: 5B3 100 µg/mL + TSH 3 ng/mL [4]: 111%
% inhibition of TSH stimulation; 5B3 10 µg/mL; Experiment 1 [5]: 0%
% inhibition of TSH stimulation; 5B3 10 µg/mL; Experiment 2 [5]: 4%
% inhibition of TSH stimulation; 5B3 100 µg/mL; Experiment 1 [5]: 0%
% inhibition of TSH stimulation; 5B3 100 µg/mL; Experiment 2 [5]: 1%
Cyclic AMP produced; 5B3 10 µg/mL + TSH 3 ng/mL; Experiment 1 [5]: 81.6 pmol/mL
Cyclic AMP produced; 5B3 10 µg/mL + TSH 3 ng/mL; Experiment 2 [5]: 92.9 pmol/mL
Cyclic AMP produced; 5B3 100 µg/mL + TSH 3 ng/mL; Experiment 1 [5]: 81.6 pmol/mL
Cyclic AMP produced; 5B3 100 µg/mL + TSH 3 ng/mL; Experiment 2 [5]: 95.8 pmol/mL
Mutated/wild type (%) of cyclic AMP produced; 5B3 10 µg/mL + TSH 3 ng/mL; Experiment 1 [5]: 99%
Mutated/wild type (%) of cyclic AMP produced; 5B3 10 µg/mL + TSH 3 ng/mL; Experiment 2 [5]: 88%
Mutated/wild type (%) of cyclic AMP produced; 5B3 100 µg/mL + TSH 3 ng/mL; Experiment 1 [5]: 101%
Mutated/wild type (%) of cyclic AMP produced; 5B3 100 µg/mL + TSH 3 ng/mL; Experiment 2 [5]: 106%
% inhibition of TSH stimulation; 5B3 10 µg/mL [6]: 7%
% inhibition of TSH stimulation; 5B3 100 µg/mL [6]: 6%
Cyclic AMP produced; 5B3 10 µg/mL + TSH 3 ng/mL [6]: 59.1 pmol/mL
Cyclic AMP produced; 5B3 100 µg/mL + TSH 3 ng/mL [6]: 60 pmol/mL
Mutated/wild type (%) of cyclic AMP produced; 5B3 10 µg/mL + TSH 3 ng/mL [6]: 71%
Mutated/wild type (%) of cyclic AMP produced; 5B3 100 µg/mL + TSH 3 ng/mL [6]: 68%
% inhibition of TSH stimulation; 5B3 10 µg/mL [7]: 0%
% inhibition of TSH stimulation; 5B3 100 µg/mL [7]: 13%
Cyclic AMP produced; 5B3 10 µg/mL + TSH 3 ng/mL [7]: 50.5 pmol/mL
Cyclic AMP produced; 5B3 100 µg/mL + TSH 3 ng/mL [7]: 42.6 pmol/mL
Mutated/wild type (%) of cyclic AMP produced; 5B3 10 µg/mL + TSH 3 ng/mL [7]: 94%
Mutated/wild type (%) of cyclic AMP produced; 5B3 100 µg/mL + TSH 3 ng/mL [7]: 81%
% inhibition of TSH stimulation; 5B3 10 µg/mL; Experiment 1 [8]: 0%
% inhibition of TSH stimulation; 5B3 10 µg/mL; Experiment 2 [8]: 0%
% inhibition of TSH stimulation; 5B3 100 µg/mL; Experiment 1 [8]: 0%
% inhibition of TSH stimulation; 5B3 100 µg/mL; Experiment 2 [8]: 0%
Cyclic AMP produced; 5B3 10 µg/mL + TSH 3 ng/mL; Experiment 1 [8]: 34.4 pmol/mL
Cyclic AMP produced; 5B3 10 µg/mL + TSH 3 ng/mL; Experiment 2 [8]: 60.6 pmol/mL
Cyclic AMP produced; 5B3 100 µg/mL + TSH 3 ng/mL; Experiment 1 [8]: 34.5 pmol/mL
Cyclic AMP produced; 5B3 100 µg/mL + TSH 3 ng/mL; Experiment 2 [8]: 56.6 pmol/mL
Mutated/wild type (%) of cyclic AMP produced; 5B3 10 µg/mL + TSH 3 ng/mL; Experiment 1 [8]: 52%
Mutated/wild type (%) of cyclic AMP produced; 5B3 10 µg/mL + TSH 3 ng/mL; Experiment 2 [8]: 88%
Mutated/wild type (%) of cyclic AMP produced; 5B3 100 µg/mL + TSH 3 ng/mL; Experiment 1 [8]: 50%
Mutated/wild type (%) of cyclic AMP produced; 5B3 100 µg/mL + TSH 3 ng/mL; Experiment 2 [8]: 85%
Substance: 5B3 IgG (antibody)
